Results published in article PMC8813914, “The IGFBP3/TMEM219 pathway regulates beta cell homeostasis” (Nature Communications, 2022).

Biological target: T1, recombinant human IGFBP3 (insulin-like growth factor binding protein 3) (human, UniProt P17936 28-291)
T1 construct: as far as I recall the product is the mature protein without the signal peptide (about Gly28-Lys291); also called rh-IGFBP3; source: bought: R&D Systems, 8874-B3; expressed in S9-baculovirus, purity >95%
Test: SPR; Biacore 8 K
Settings: both partners purified

T1 sequence (P17936 28-291): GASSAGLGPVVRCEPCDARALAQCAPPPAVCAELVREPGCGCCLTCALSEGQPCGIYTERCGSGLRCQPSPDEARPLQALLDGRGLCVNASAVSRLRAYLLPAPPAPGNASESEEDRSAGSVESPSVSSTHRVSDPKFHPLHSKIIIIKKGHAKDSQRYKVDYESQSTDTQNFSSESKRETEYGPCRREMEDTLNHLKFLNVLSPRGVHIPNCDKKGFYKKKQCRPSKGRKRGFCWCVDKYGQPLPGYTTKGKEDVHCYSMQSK

Kd: 1010 nM
B1: ecto-TMEM219 (recombinant protein based on the TMEM219 extracellular domain) (domain or fragment)
chain: THRTGLRSPDIPQDWVSFLRSFGQLTLCPRNGTVTGKWRGSHVVGLLTTLNFGDGPDRNKTRTFQATVLGSQMGLKGSSAGQLVLITARVTTERTAGTCLYFSAVPGILPSSQPPISCSEEGAGNATLSPRMGEECVSVWSHEGLVLTKLLTSEELALCGSR
notes: TMEM219 extracellular domain, 162 amino acids as printed, molecular weight 18 kDa; Buffer 10 mM HEPES, 0.05% SDS, pH 7.5; also called newly generated recombinant protein based on TMEM219 extracellular portion; source: E. coli (vector pET30a), by Genscript, from inclusion bodies, one-step purification through Nickel column, purity >90%
